Values of other authors in publication PMC3824636.

Columns and labels:
Cys149 [1] = biological target: Cys149 (UniProt position 152, ISNASCTTNCL); experiment: chemical modification or UV-vis (listed collectively, not mapped to individual values); conditions: not stated (apo or holo not specified)
Cys149 [2] = biological target: Cys149 (UniProt position 150, VSNASCTTNCL); experiment: as above; conditions: not stated (apo or holo not specified)
Cys302 = experiment: chemical modification (described only as 'titration of Cys-302')
Cys149 [3] = biological target: Cys149 (UniProt position 156, VSNASCTTNCL); experiment: chemical modification or UV-vis (listed collectively, not mapped to individual values); conditions: not stated (apo or holo not specified)

Glyceraldehyde-3-phosphate dehydrogenase (GAPDH) (Geobacillus stearothermophilus (Bacillus stearothermophilus))
pKa (Cys149 [1]): 5.9

Glyceraldehyde-3-phosphate dehydrogenase (GAPDH) (Escherichia coli)
pKa (Cys149 [2]): ~5.7

Non-phosphorylating NADP-dependent glyceraldehyde-3-phosphate dehydrogenase (GAPN) (Streptococcus mutans)
pKa (Cys302; NADP+-bound (holo-enzyme)): 6.1 | pKa (Cys302; apo-enzyme (no cofactor)): 8.5

Cytoplasmic glyceraldehyde-3-phosphate dehydrogenase GAPC1 (Arabidopsis thaliana)
pKa (Cys149 [3]): 5.7

Glyceraldehyde-3-phosphate dehydrogenase (GAPDH), pig liver as stated (Sus scrofa)
pKa (Cys149 [2]): 5.5
